# Results published in the nanobody polyreactivity screen of Harvey et al. (2022).
# Test: yeast display, Sf9 membrane polyspecificity reagent, FACS + sequencing; frameworks hold sequencing errors
# In short: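 A synthetic nanobody library was expressed on Saccharomyces cerevisiae BJ5465 by galactose induction for 36–48 hours. The library was stained for 1 hour at 4 °C with 10% biotinylated, detergent-solubilized Sf9 membrane reagent and enriched with streptavidin microbeads before FACS. Low and high (top ~1%) gates were set on anti-HA fluorescence for expression and streptavidin fluorescence for reagent binding, and each polyreactivity label reflects the gate of origin.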
row,Sequence,polyreactivity (PSR sort gate)
1,QVQLVESGGGLVQAGGSLRLSCAASGSTFSPYAMGWYRQAPGKERELVANITISGGSTYYADSVKGRFTISRDNAKNTVYIQMNSLKPEDTAVYYCNADSLIRWLFTVVIFDYWGQGTLVTVSS,low polyreactivity
2,QVQLQLSGGDLVQAGRSLRLSCAASGTIYGLTSMGWYRQAQAKEREFVAAITDGGKTNYADSVKGRFTISRDNAKNTVYLQMIRLKPEDTAVYYCAVLFSDDAYYAYWGQGTQVTVSS,low polyreactivity
3,QVQLVESGGGLVQAGGSLRLSCAASGSIFGYYAMGWYRQAPGKERELVAAISVSGGSTYYADSVKGRFTISRDNAKNTVYLQMNSLKPEDTAVYYCKKVQGSWRVPYYYWGQGTQVTVSS,high polyreactivity
4,HVQLVESGGGLVQAGGSLRLSCAASGGISIDNVMGWYRQATGKERELVAAISKSGGRTFYADSVKGRFTISRDNAKNTVYLQMNSLKPEDTAVYYCAKLYISKPYWYEHEYWGQGTQVTVSS,high polyreactivity
5,QVKLVESGGGLVQAGGSLRLSCAASGLIFDTYAMGWYRQAHGKERELVADITLSGGSTYYADSLKGRFTISRDTAKNTVYLQMNSLKPVDTAVYYCAADSVSLFYWDQRYPDEYDYWGQGTQVTVSS,low polyreactivity
6,QDQHVESGGGLVQAGGSLRLSCAASGIIFYDNTMGWYRQAPGKERELVASITWRGGSTYYADSVKGRFTISRDNAKNTVYLQMNSLKPEDTAVYYCNADSSDDYDYWGQGTQVTVSS,low polyreactivity
7,QVQLVESGGGLVQAGGSLRLSCAASGGTFGAYAMGWYRQAPGKERELVAAISGSGARTYYADSVKGRFTISRDNAKNTVYVQMNSLKPEDTAVYYCAARSTGTRVGEYDYWGQGTQVTVSS,high polyreactivity
8,QVQLVESGGGLVQAGGSHRLSCAASGLIIGYYDMGWYRQAPGQERELVAAITQSSGSTYYADSVKGRFTISRDNAKNTVYLQMNRLKREDTAVYYCARRKWKFADNYKLDYWGQGTQVTVSS,low polyreactivity
9,QVQLVESGGGLFQAGGSLRLSCAASGFIFARNAMSWYRQAPGKERELVAAISRNGGRTSYADSVKGRFTISRDNAKNTVYLQMNSMKAEDTAVYYCAKSQGYVSWTGAYSYDYWGQGTQVTVSS,high polyreactivity
10,QVQLVESGGGLVQAGGSLRLSCAASGSTFGYNAMGWYRQAPGKEREFVARIRSSGSTTYADSVKGRFTISRDNAKNTVYLQMNSLKPEDTAVYYCAATFRGRYAYYYWGQGTQVTVSS,high polyreactivity
11,QVQLVESGGGLVQAGGSLRLSCAASGSTFVRNAMGWYRQAPGKERELVAGISTGDNTYYADSVKGRFTISRDNAKNTVYLQMNSLKPEDTAVDYCNATKDFSFGLDYWGQGTQVTVSS,low polyreactivity
12,QVQLVDSGGGLVQAGGRLRLSCAASGYILTHYAMGWYRQAPGKERELVAAITRVGNTNYADSVKGRFTISRDNAKNTVYLQMNSLKPEDTAVYSCAADGVASLFGDPPTEFDYWGQGTQVTVSS,low polyreactivity
13,QVQLVESGGGLVQAGGSLRLSCAASGNTFYDYGMGWYRQAPGKERELVAGIDGSSTYYADSVKGRFTISRDNAKNTVYLQMNSLKPEDTAVYYCAAYVGSYVSYRAYPRIYYYWGQGTQVTLSS,low polyreactivity
14,QVQLVESGGGLVQAGGSLRLSCAASGRTFTTYTMGWYRQAPGKERELVASINYRGGRTYYADSVKGRFTISRDNAKNTVYLQMNSLKPEDTAVYYCAYYPYGYDYWGQGTQVTVSS,high polyreactivity
15,QVQLVESGGGLVQAGGSLRLSCAASGRIFGTYTMGWYRQAPGKERELVAAITTGGITNYADSVKGRFTISRDNAKNTVYLQMNSLKPEDTAVYYCNARWDYGAYEYWGQGTQVTVSS,low polyreactivity
16,QVQLVESGGGLVQAGGSLRLSCAASGSTFRPYAMGWYREAPGKERELVAAITSTGGSTYYADSVKGRFTISRDNAKNSVSLQMNSLKPDDTAVYYCAAPLVRYAGPYDYWGQGTQVTVSS,low polyreactivity
17,QVQLVESGGGLVQAGGSLRLSCAASGFTFAYYAMGWYRQAPGKETELVAAITSGGRTNYADSVKGRFTISRDNAKNTVYLQMNSVKPEDTAVDYCAKYRRGGSRHYSVFNHDYWGQGTQVTVSS,high polyreactivity
18,QVQLVESGGGLVQAGGSLRLSCPASGRIFYKYAMGWYRQAPGKERELVAAISSTGGSTNYADSVKGRFTISRDNAKNSVYFQMNSLKPEDTAVYYCNAVSRYYYPYYYWGQGTQVTVSS,low polyreactivity
19,QVQLVESGGGLVQAGGSLRLSCAASGRTFSVYAMGSSRHAPGKERELVAAITESGGSTYYADSVKGRFTISRDNAKITVYLQMNSLKPEDTAVYYCNAGPYYWYVYWGQGTQVTVSS,low polyreactivity
20,QEQLQESGSGLVQAGGSLRLSCAASGNIFHDWVMGWYRQAPGKERELVAAISPGAITYYADSVKGRFTISRDNAKNTVYLQTNSLKPEDTAVYYCAAYYIVEYLHGYWGQGTRVTVSS,low polyreactivity
21,QVQLVESGGGLVQAGGSLRLSSAASGSTFYYNAMGWYRQAPGKEREFVAAITYTGGSTDYADSVKGRFTISRDNAKNTVYLQMNSLKPEDTAVYYCAKGTYGYISTWYDYWGQGTQVTVSS,low polyreactivity
22,QVQLVESGGGLVQAGVSLRLSCAASGSTFKQYAMGWYRQAPGKERELVAAIDRGGSTYYADSVKGRFTISRDNANNTVYLQMNSLKPEYTAVYYCAARFVQYRYAFDYWGQGTQVTVSS,low polyreactivity

row,Sequence,polyreactivity (PSR sort gate)
1,QVQLVESGGGLVQAGGSLRLSCAASGRIFFWNALGWYRQAPGKEREFVATISWNDAITYYADSVKGRFTISRDNAKNTVYLQMNSLKPEDTAVYYCNVDPKIVFSFGYDYWGQGTQVTVSS,low polyreactivity
2,QVQLVDSGGGIGQAGASLRLSCAASGRNFAVYAIGWYRQAPGKERELVAAITRNGGSTYADSVKGRFTISRDNAKNTVYFQMNSLKPDDTAVYYCNAVAYIYSYAYPPYWGREHLNYWGQGTQLTVSS,low polyreactivity
3,QVQLVESGGGLVQAGGSLRLSCAASGILFGPYAKGWYRQAPGKERELVAVISGSGGSTNYADSVKGRFTISRDNGKYTVYLQMNSLKPEVTAVYYCAADSLSKVCYYYWGEGTQVTVSS,low polyreactivity
4,QVQLVESGGGLVQAGGSLRLSCAASGLIFDPYAMGWYRQAPGKERELVADISSGGSTNYADSVKGRFTISRDNAKNTVYLQMTSLKPEDTAVYYCNKTIILDGYYFSLTLYDSWGQGTQVTVSS,low polyreactivity
5,QVQLVESGGGLVQAGGSLRLSCAASGFILRIYTMGWYRQAPGKERELVAAINWSGGRTYYADSVKGRFTISRDNAKNTVYLHMNSLKPEDTAVYYCAAVYGVSVSKYYYWGQGTQVTVSS,high polyreactivity
6,QVQLVESGGGLVQAGGSLRISCAASGRIFYFNTMGWYRQAPGKERELVAAISLSGGRTYYADSVKGRFTISRDNAKNTVYLQMNSLKREDSAVYYCNAVARSRSRDTSKGDYWGQGTQVTVSS,high polyreactivity
7,QVQLVESGGGLVQAGGSLRLSCAASGRTFDVYAMGWYRQAPGKERELVAAISWSGGGTYYADSVKGRFTISRDNAKNTVYLQLTSLNPADTAVYSCAAALTFALDPNRYTYSDYYYWGQGTQVTVSS,low polyreactivity
8,QVQLVESGGGLVQAGGSLRLSCAASGSIFIINAMVWYRQAPGKERELVAAINNGVNTYYADSVKGRFTISRDNAKNTVYLQMNSLKPEDTAGYYCAADYGDPRVNEYDYWGQGTQVTVSS,low polyreactivity
9,QVQLVESGGGLVQAGGSLRLSCAASGRIFYFYAMGWYRQAPGKERELVASISSGGITNYADSVKGRFTISRDNAKNTVYLQMNSLKPEDTAVYYCNAGYASGKYSGGYLYGYWGQGTQVTVSS,low polyreactivity
10,QVQLVESGGGLVQAGGSLRLSCAASGRIFDIYALGWYRQAPGKERELVAAITWRGGSTYYADSVKGRFTISRDNAKNTVYLQMNSLKPEDTAVYYCAVDFITPRGSYYWGQGTQVTVSS,low polyreactivity
11,QVQLVESGGCLVQAGGSLRLSCAASGNIFGIYTMGLYTHAPGKERELVASIRTGGSTNYADSVKGRFTISRDNAKNTDYLQMNSLKPEDSSVYYCNARKLFSSSYGYWGQGTQVTVSS,high polyreactivity
12,QVQLVESGGGLVQAGGSLRLSCAASGRTFASYAMGWYRPAPGKEREFVAVISVNGGNTYYADSVKGRFTISRDNAKNTVYLQMNSLKPEDTAVYYCARFDGWYQGYYPLYEFDYWGQGTQVTVSS,high polyreactivity
13,QVQLVESGGGLVQAGGSLRLSCAASGRTFARYVMGWYRQAPGKERELVASISNSGGSTYYADSVKGRFTISRDNAKNTVYLQMNSLKPEDTAVYYCARRYYSYTTYRYDYWGQGTQVTVSS,high polyreactivity
14,QDQLEESGGGLVQEGGSLRIICDAYRSTFYANTMGWYRQSTGKERELVATISIDGSTNYADSVKGRFTFSRDYAKNTVYLQMNSLKPEDTAVYYCNADVYSVLYGYWGQGTQVSVSS,low polyreactivity
15,QVQLEESGGGLVQAGGSLRLSCAASGITFLRNAMGWYSQAPGKERELVAAISRSGGRTYYADSVKGRFTISRDNAQNTVYLQMNSLKPEDTAVYYCAVVTQFGDGYYWGQGTQVTVSS,high polyreactivity
16,QVQLVESGGGLVQAGGSLRLTCAASGSIFISYHMGWYRQAPGKERELVAAIRSRVGSTYYSDSVKGRFTISRDNAKNPVYFQMNCLKPEDPAVYYCAAERSFSRFTTYDYWGQGTQVTVSS,low polyreactivity
17,QVQLVESGGGLVQAGGSLRLSCAASGNIYAYYAMGWYRQAPGKEWELVAAITDSGGNTFYADSVKGRFTISRDNAKNTVYLQMNSLKPVDTAVYYCAADPDGWGFVYPRYDYWGQGTQVTVSS,low polyreactivity
18,QVQLVESGGGLVQAGGSLRLSCAASGSIFYQNAMGWYRQAPGKERELVAAITSDGSTYYADSVKGRFTISRDNAKNTVYLQMNSLKPEDTAVYYCAAEYYGHRYDYWGQGTQVTVSS,low polyreactivity
19,QVQLVESGGGLVQAGGSLRLSCAASGSIFKYYAMGWYRQAPGKEREFVAAITRSGGSTYYADSVKGRFTISRDNAKNTVYLQMNSLKPEDTAVYYCAARSYARPGGSRFDYWGQGTQVTVSS,high polyreactivity
20,QVQLVESGGGLVQAGGSLRLSCAASGSTFPPYVMGWYRQAPGKERELVAAITWSSGSTYYADSVKGRFTISRDNAKNTVYLQMNSLKPEDTAVYYCAAKWLGYGFDYWGQGTQVTVSS,low polyreactivity
21,QVQLVESGGGLVQAGGSLRLSCAASGSTFDDYTMGWYRQAPGKERELLAAISSDSSTNYADSVKGRFTISRDNAKNTVYLQMNSLKPEDTAVYYCATRSRTTKIVRWPGMYYWGQGTQVTVSS,high polyreactivity
